Experimental data taken from publication PMC5680235, “Identification of a peptide recognizing cerebrovascular changes in mouse models of Alzheimer’s disease” (Nature Communications, 2017).
Where no end group is shown, it is not given here. FAM = 5(6)-carboxyfluorescein label

T1: full-length recombinant human CTGF/CCN2 (human, UniProt P29279 27-349)
T1 construct: connective tissue growth factor (CTGF/CCN2), human, full-length recombinant; also called connective tissue growth factor; recombinant CTGF; source: bought: R&D systems (cat#9190-CC)
T1 sequence (looked up): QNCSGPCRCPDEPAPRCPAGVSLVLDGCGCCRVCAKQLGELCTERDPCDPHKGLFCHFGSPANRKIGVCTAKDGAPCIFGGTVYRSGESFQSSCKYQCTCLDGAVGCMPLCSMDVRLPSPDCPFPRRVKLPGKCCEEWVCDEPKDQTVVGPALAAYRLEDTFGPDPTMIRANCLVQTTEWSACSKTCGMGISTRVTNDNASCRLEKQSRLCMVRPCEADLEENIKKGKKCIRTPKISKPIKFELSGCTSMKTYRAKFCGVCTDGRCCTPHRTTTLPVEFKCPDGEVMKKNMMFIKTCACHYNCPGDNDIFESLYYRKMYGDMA


Molecular target: T1, full-length recombinant human CTGF/CCN2
Experiment: ELISA; plate wells coated with recombinant human CTGF; FAM-peptide in 0.05% Casein/PBST overnight at 4 °C, two peptide concentrations; alone or with excess unlabeled DAG (0.6 mM); detected with anti-FITC HRP antibody, absorbance at 450 nm
Conditions: both partners purified

Row | Binder | binding result
1 | {FAM}-CDAGRKQKC (also: cyclic peptide, ring type not given here, cyclic 9-amino acid CX7C peptide found by in vivo T7 phage display in hAPP-J20 mice; Synthesised on rink amide resin, so the C-terminus is probably an amide; the ring is probably a disulfide between the two cysteines (neither is stated for this peptide); also called FAM-DAG; source: synthetic peptide) [FAM-labeled DAG peptide (cyclic CDAGRKQKC)] | binds
2 | CDAGRKQKC (also: cyclic peptide, ring type not given here, cyclic 9-amino acid CX7C peptide found by in vivo T7 phage display, without label; Synthesised on rink amide resin, so the C-terminus is probably an amide; also called non-labeled DAG; free DAG; source: synthetic peptide) [unlabeled DAG peptide (cyclic CDAGRKQKC)] | binds
